{
  "source": "the Immune Epitope Database (IEDB)",
  "key": {"HLA-A*01:01": {"biological_target": "HLA-A*01:01", "experiment": "IEDB peptide-MHC binding, purified MHC/direct/fluorescence; filed as Kd, often an IC50 or EC50 that approximates it; ≥ and ≤ were set here for values at or beyond the usual limits of such assays"}, "HLA-A*69:01": {"biological_target": "HLA-A*69:01", "experiment": "IEDB peptide-MHC binding, purified MHC/direct/fluorescence; filed as Kd, often an IC50 or EC50 that approximates it; ≥ and ≤ were set here for values at or beyond the usual limits of such assays"}, "HLA-B*08:01": {"biological_target": "HLA-B*08:01", "experiment": "IEDB peptide-MHC binding, purified MHC/direct/fluorescence; filed as Kd, often an IC50 or EC50 that approximates it; ≥ and ≤ were set here for values at or beyond the usual limits of such assays"}, "HLA-A*03:01": {"biological_target": "HLA-A*03:01", "experiment": "IEDB peptide-MHC binding, purified MHC/direct/fluorescence; filed as Kd, often an IC50 or EC50 that approximates it; ≥ and ≤ were set here for values at or beyond the usual limits of such assays"}, "HLA-B*58:01": {"biological_target": "HLA-B*58:01", "experiment": "IEDB peptide-MHC binding, purified MHC/direct/fluorescence; filed as Kd, often an IC50 or EC50 that approximates it; ≥ and ≤ were set here for values at or beyond the usual limits of such assays"}, "HLA-A*31:01": {"biological_target": "HLA-A*31:01", "experiment": "IEDB peptide-MHC binding, purified MHC/direct/fluorescence; filed as Kd, often an IC50 or EC50 that approximates it; ≥ and ≤ were set here for values at or beyond the usual limits of such assays"}, "HLA-A*02:01 [1]": {"biological_target": "HLA-A*02:01", "experiment": "IEDB peptide-MHC binding, purified MHC/direct/fluorescence; filed as Kd, often an IC50 or EC50 that approximates it; ≥ and ≤ were set here for values at or beyond the usual limits of such assays"}, "HLA-B*44:02": {"biological_target": "HLA-B*44:02", "experiment": "IEDB peptide-MHC binding, purified MHC/direct/fluorescence; filed as Kd, often an IC50 or EC50 that approximates it; ≥ and ≤ were set here for values at or beyond the usual limits of such assays", "settings": "source organism: Brucella abortus"}, "HLA-A*11:01": {"biological_target": "HLA-A*11:01", "experiment": "IEDB peptide-MHC binding, purified MHC/direct/fluorescence; filed as Kd, often an IC50 or EC50 that approximates it; ≥ and ≤ were set here for values at or beyond the usual limits of such assays"}, "HLA-B*27:05": {"biological_target": "HLA-B*27:05", "experiment": "IEDB peptide-MHC binding, purified MHC/direct/fluorescence; filed as Kd, often an IC50 or EC50 that approximates it; ≥ and ≤ were set here for values at or beyond the usual limits of such assays"}, "HLA-A*26:01": {"biological_target": "HLA-A*26:01", "experiment": "IEDB peptide-MHC binding, purified MHC/direct/fluorescence; filed as Kd, often an IC50 or EC50 that approximates it; ≥ and ≤ were set here for values at or beyond the usual limits of such assays"}, "HLA-B*15:01 [2]": {"biological_target": "HLA-B*15:01", "experiment": "IEDB peptide-MHC binding, purified MHC/direct/fluorescence; filed as Kd, often an IC50 or EC50 that approximates it; ≥ and ≤ were set here for values at or beyond the usual limits of such assays"}, "HLA-B*07:02": {"biological_target": "HLA-B*07:02", "experiment": "IEDB peptide-MHC binding, purified MHC/direct/fluorescence; filed as Kd, often an IC50 or EC50 that approximates it; ≥ and ≤ were set here for values at or beyond the usual limits of such assays"}, "HLA-B*40:01": {"biological_target": "HLA-B*40:01", "experiment": "IEDB peptide-MHC binding, purified MHC/direct/fluorescence; filed as Kd, often an IC50 or EC50 that approximates it; ≥ and ≤ were set here for values at or beyond the usual limits of such assays"}, "HLA-A*24:03": {"biological_target": "HLA-A*24:03", "experiment": "IEDB peptide-MHC binding, purified MHC/direct/fluorescence; filed as Kd, often an IC50 or EC50 that approximates it; ≥ and ≤ were set here for values at or beyond the usual limits of such assays"}, "HLA-B*15:01 [3]": {"biological_target": "HLA-B*15:01", "experiment": "IEDB peptide-MHC binding, purified MHC/competitive/radioactivity; filed as Kd, often an IC50 or EC50 that approximates it; ≥ and ≤ were set here for values at or beyond the usual limits of such assays", "settings": "source organism: Vaccinia virus WR"}, "HLA-A*24:02": {"biological_target": "HLA-A*24:02", "experiment": "IEDB peptide-MHC binding, purified MHC/competitive/fluorescence; ≥ and ≤ were set here for values at or beyond the usual limits of such assays", "settings": "source organism: Zaire ebolavirus"}, "HLA-A*02:01 [4]": {"biological_target": "HLA-A*02:01", "experiment": "IEDB peptide-MHC binding, purified MHC/competitive/fluorescence; ≥ and ≤ were set here for values at or beyond the usual limits of such assays", "settings": "source organism: Zaire ebolavirus"}, "HLA-B*53:01": {"biological_target": "HLA-B*53:01", "experiment": "IEDB peptide-MHC binding, purified MHC/competitive/radioactivity; filed as Kd, often an IC50 or EC50 that approximates it; ≥ and ≤ were set here for values at or beyond the usual limits of such assays", "settings": "source organism: Dengue virus 4 Philippines/H241/1956"}, "HLA-B*51:01": {"biological_target": "HLA-B*51:01", "experiment": "IEDB peptide-MHC binding, purified MHC/competitive/radioactivity; filed as Kd, often an IC50 or EC50 that approximates it; ≥ and ≤ were set here for values at or beyond the usual limits of such assays", "settings": "source organism: Dengue virus 1 Brazil/97-11/1997"}, "[5]": {"settings": "source organism: Brucella abortus"}, "[6]": {"settings": "source organism: Pseudomonas viridiflava"}},
  "note": "pIC50, pKd: −log10 of the molar value.",
  "data": [
    {"sequence": "AENGWGFYF", "values": [
      {"measurement": "pKd", "setting": "HLA-A*01:01; [5]", "result": "≤ 4.70"},
      {"measurement": "pKd", "setting": "HLA-A*69:01; [5]", "result": "≤ 4.70"},
      {"measurement": "pKd", "setting": "HLA-B*08:01; [5]", "result": "≤ 4.70"},
      {"measurement": "pKd", "setting": "HLA-A*03:01; [5]", "result": "≤ 4.70"},
      {"measurement": "pKd", "setting": "HLA-B*58:01; [5]", "result": "≤ 4.70"},
      {"measurement": "pKd", "setting": "HLA-A*31:01; [5]", "result": "≤ 4.70"},
      {"measurement": "pKd", "setting": "HLA-A*02:01 [1]; [5]", "result": "≤ 4.70"},
      {"measurement": "pKd", "setting": "HLA-B*44:02", "result": 5.19},
      {"measurement": "pKd", "setting": "HLA-A*11:01; [5]", "result": "≤ 4.70"},
      {"measurement": "pKd", "setting": "HLA-B*27:05; [5]", "result": "≤ 4.70"},
      {"measurement": "pKd", "setting": "HLA-A*26:01; [5]", "result": "≤ 4.70"},
      {"measurement": "pKd", "setting": "HLA-B*15:01 [2]; source organism: Brucella suis", "result": 6.55},
      {"measurement": "pKd", "setting": "HLA-B*07:02; [5]", "result": "≤ 4.70"},
      {"measurement": "pKd", "setting": "HLA-B*40:01; source organism: Brucella suis", "result": 7.54}
    ]},
    {"sequence": "ATPPSLVHF", "values": [
      {"measurement": "pKd", "setting": "HLA-A*24:03; source organism: Giardia lamblia ATCC 50803", "result": 6.82}
    ]},
    {"sequence": "AVFMLMETM", "values": [
      {"measurement": "pKd", "setting": "HLA-B*15:01 [3]", "result": 7.59}
    ]},
    {"sequence": "CLHHAYQGD", "values": [
      {"measurement": "pIC50", "setting": "HLA-A*24:02", "result": "≤ 4.04"},
      {"measurement": "pIC50", "setting": "HLA-A*02:01 [4]", "result": "≤ 3.92"}
    ]},
    {"sequence": "CPNERRAWNF", "values": [
      {"measurement": "pKd", "setting": "HLA-B*53:01", "result": 7.15}
    ]},
    {"sequence": "DPRRCLKPVI", "values": [
      {"measurement": "pKd", "setting": "HLA-B*51:01", "result": 4.98}
    ]},
    {"sequence": "DPSSGYYST", "values": [
      {"measurement": "pIC50", "setting": "HLA-A*24:02", "result": "≤ 3.82"}
    ]},
    {"sequence": "DYDQRDYGF", "values": [
      {"measurement": "pKd", "setting": "HLA-A*01:01; [6]", "result": "≤ 4.70"},
      {"measurement": "pKd", "setting": "HLA-A*69:01; [6]", "result": "≤ 4.70"},
      {"measurement": "pKd", "setting": "HLA-B*08:01; [6]", "result": "≤ 4.70"},
      {"measurement": "pKd", "setting": "HLA-A*03:01; [6]", "result": "≤ 4.70"},
      {"measurement": "pKd", "setting": "HLA-A*24:03; [6]", "result": "≤ 4.70"},
      {"measurement": "pKd", "setting": "HLA-B*58:01; [6]", "result": "≤ 4.70"},
      {"measurement": "pKd", "setting": "HLA-A*31:01; [6]", "result": "≤ 4.70"},
      {"measurement": "pKd", "setting": "HLA-A*02:01 [1]; [6]", "result": "≤ 4.70"},
      {"measurement": "pKd", "setting": "HLA-A*11:01; [6]", "result": "≤ 4.70"},
      {"measurement": "pKd", "setting": "HLA-B*27:05; [6]", "result": "≤ 4.70"},
      {"measurement": "pKd", "setting": "HLA-A*26:01; [6]", "result": "≤ 4.70"},
      {"measurement": "pKd", "setting": "HLA-B*15:01 [2]; [6]", "result": "≤ 4.70"},
      {"measurement": "pKd", "setting": "HLA-B*07:02; [6]", "result": "≤ 4.70"},
      {"measurement": "pKd", "setting": "HLA-B*40:01; [6]", "result": "≤ 4.70"}
    ]}
  ]
}
